The labels stand for the following.
B1: THEMIS (other)
chain: MALSLEEFVHSLDLRTLPRVLEIQAGIYLEGSIYEMFGNECCFSTGEVIKITGLKVKKIIAEICEQIEGCESLQPFELPMNFPGLFKIVADKTPYLTMEEITRTIHIGPSRLGHPCFYHQKDIKLENLIIKQGEQIMLNSVEEIDGEIMVSCAVARNHQTHSFNLPLSQEGEFYECEDERIYTLKEIVEWKIPKNRTRTVNLTDFSNKWDSTNPFPKDFYGTLILKPVYEIQGVMKFRKDIIRILPSLDVEVKDITDSYDANWFLQLLSTEDLFEMTSKEFPIVTEVIEAPEGNHLPQSILQPGKTIVIHKKYQASRILASEIRSNFPKRHFLIPTSYKGKFKRRPREFPTAYDLEIAKSEKEPLHVVATKAFHSPHDKLSSVSVGDQFLVHQSETTEVLCEGIKKVVNVLACEKILKKSYEAALLPLYMEGGFVEVIHDKKQYPISELCKQFRLPFNVKVSVRDLSIEEDVLAATPGLQLEEDITDSYLLISDFANPTECWEIPVGRLNMTVQLVSNFSRDAEPFLVRTLVEEITEEQYYMMRRYESSASHPPPRPPKHPSVEETKLTLLTLAEERTVDLPKSPKRHHVDITKKLHPNQAGLDSKVLIGSQNDLVDEEKERSNRGATAIAETFKNEKHQK
notes: Endogenous protein from T cell lysate (Co-IP-MS); also called endogenous THEMIS; TEHMIS [sic]
B2: CD8α (receptor)
chain: not shown
notes: Endogenous protein from T cell lysate; The CARs themselves carry a CD8α stalk; the text says that unique peptides outside the stalk were detected; also called CD8A; CD8 co-receptor
B3: TRAF2 (other)
chain: AAASVTPPGSLELLQPGFSKTLLGTKLEAKYLCSACRNVLRRPFQAQCGHRYCSFCLASILSSGPQNCAACVHEGIYEEGISILESSSAFPDNAARREVESLPAVCPSDGCTWKGTLKEYESCHEGRCPLMLTECPACKGLVRLGEKERHLEHECPERSLSCRHCRAPCCGADVKAHHEVCPKFPLTCDGCGKKKIPREKFQDHVKTCGKCRVPCRFHAIGCLETVEGEKQQEHEVQWLREHLAMLLSSVLEAKPLLGDQSHAGSELLQRCESLEKKTATFENIVCVLNREVERVAMTAEACSRQHRLDQDKIEALSSKVQQLERSIGLKDLAMADLEQKVLEMEASTYDGVFIWKISDFARKRQEAVAGRIPAIFSPAFYTSRYGYKMCLRIYLNGDGTGRGTHLSLFFVVMKGPNDALLRWPFNQKVTLMLLDQNNREHVIDAFRPDVTSSSFQRPVNDMNIASGCPLFCPVSKMEAKNSYVRDDAIFIKAIVDLTGL
notes: Endogenous protein from T cell lysate
B4: PIK3CD (enzyme)
chain: MPPGVDCPMEFWTKEENQSVVVDFLLPTGVYLNFPVSRNANLSTIKQLLWHRAQYEPLFHMLSGPEAYVFTCINQTAEQQELEDEQRRLCDVQPFLPVLRLVAREGDRVKKLINSQISLLIGKGLHEFDSLCDPEVNDFRAKMCQFCEEAAARRQQLGWEAWLQYSFPLQLEPSAQTWGPGTLRLPNRALLVNVKFEGSEESFTFQVSTKDVPLALMACALRKKATVFRQPLVEQPEDYTLQVNGRHEYLYGSYPLCQFQYICSCLHSGLTPHLTMVHSSSILAMRDEQSNPAPQVQKPRAKPPPIPAKKPSSVSLWSLEQPFRIELIQGSKVNADERMKLVVQAGLFHGNEMLCKTVSSSEVSVCSEPVWKQRLEFDINICDLPRMARLCFALYAVIEKAKKARSTKKKSKKADCPIAWANLMLFDYKDQLKTGERCLYMWPSVPDEKGELLNPTGTVRSNPNTDSAAALLICLPEVAPHPVYYPALEKILELGRHSECVHVTEEEQLQLREILERRGSGELYEHEKDLVWKLRHEVQEHFPEALARLLLVTKWNKHEDVAQMLYLLCSWPELPVLSALELLDFSFPDCHVGSFAIKSLRKLTDDELFQYLLQLVQVLKYESYLDCELTKFLLDRALANRKIGHFLFWHLRSEMHVPSVALRFGLILEAYCRGSTHHMKVLMKQGEALSKLKALNDFVKLSSQKTPKPQTKELMHLCMRQEAYLEALSHLQSPLDPSTLLAEVCVEQCTFMDSKMKPLWIMYSNEEAGSGGSVGIIFKNGDDLRQDMLTLQMIQLMDVLWKQEGLDLRMTPYGCLPTGDRTGLIEVVLRSDTIANIQLNKSNMAATAAFNKDALLNWLKSKNPGEALDRAIEEFTLSCAGYCVATYVLGIGDRHSDNIMIRESGQLFHIDFGHFLGNFKTKFGINRERVPFILTYDFVHVIQQGKTNNSEKFERFRGYCERAYTILRRHGLLFLHLFALMRAAGLPELSCSKDIQYLKDSLALGKTEEEALKHFRVKFNEALRESWKTKVNWLAHNVSKDNRQ
notes: as for B3
B5: CAR19.28ζ (receptor)
chain: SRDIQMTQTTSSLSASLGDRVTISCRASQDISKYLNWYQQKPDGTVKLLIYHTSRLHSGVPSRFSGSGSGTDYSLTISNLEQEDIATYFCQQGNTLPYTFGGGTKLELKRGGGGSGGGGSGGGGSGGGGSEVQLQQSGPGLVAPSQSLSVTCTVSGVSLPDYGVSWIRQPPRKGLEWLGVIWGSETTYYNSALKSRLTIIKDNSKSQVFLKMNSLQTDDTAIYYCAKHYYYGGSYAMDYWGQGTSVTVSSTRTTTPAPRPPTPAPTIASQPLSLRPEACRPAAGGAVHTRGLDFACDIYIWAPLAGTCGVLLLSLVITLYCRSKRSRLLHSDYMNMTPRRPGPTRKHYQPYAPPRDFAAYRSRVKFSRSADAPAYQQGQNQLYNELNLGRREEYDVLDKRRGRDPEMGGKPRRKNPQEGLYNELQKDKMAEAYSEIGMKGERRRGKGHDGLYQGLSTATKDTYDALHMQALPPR
notes: Expressed in human T cells and pulled down from lysate with the anti-CAR19 Ab; also called CAR.28ζ; CAR19.CD28ζ
B6: TRAF1 (other)
chain: MASSSGSSPRPAPDENEFPFGCPPTVCQDPKEPRALCCAGCLSENPRNGEDQICPKCRGEDLQSISPGSRLRTQEKAHPEVAEAGIGCPFAGVGCSFKGSPQSVQEHEVTSQTSHLNLLLGFMKQWKARLGCGLESGPMALEQNLSDLQLQAAVEVAGDLEVDCYRAPCSESQEELALQHFMKEKLLAELEGKLRVFENIVAVLNKEVEASHLALATSIHQSQLDRERILSLEQRVVELQQTLAQKDQALGKLEQSLRLMEEASFDGTFLWKITNVTRRCHESACGRTVSLFSPAFYTAKYGYKLCLRLYLNGDGTGKRTHLSLFIVIMRGEYDALLPWPFRNKVTFMLLDQNNREHAIDAFRPDLSSASFQRPQSETNVASGCPLFFPLSKLQSPKHAYVKDDTMFLKCIVETST
notes: as for B3

Experiment [1] concerns the target T1, CAR19.BBζ (human, UniProt P01732 138-206; Q07011 214-255; P20963 52-164).
T1 construct: Expressed in human T cells (or Jurkat cells) and pulled down from lysate; also called CAR.BBζ; CAR19.BBC
Kind of experiment: co-IP with anti-CAR19 Ab from CAR-T cell lysate, LC-MS/MS. The method, then: (§1) For Immunoprecipitation (IP), assay, proteins from T cells were extracted in RIPA lysis buffer (Thermo Scientific) supplemented with 1×protease/phosphatase Inhibitors (Thermo Scientific). Equal amount of total proteins was used for IP. Rabbit/mouse IgG (Thermo Scientific) with protein G magnetic beads (Bio-Rad) was used to pre-clear the lysate and anti-CAR19, anti-HA or anti-FLAG Abs were incubated with lysate for 16 hours, and protein G beads were then used for the pull-down. IP products were dissolved in 2× SDS Laemmli buffer for Western blot analysis. […] 2× SDS Laemmli buffer without β-mercaptoethanol was used to dissolve the IP product, and β-mercaptoethanol was supplemented before western blot.
For mass spectrometry (MS) assays, immunoprecipitated samples (3 biological replicates) were subjected to SDS-PAGE and stained with Coomassie blue dye. Lanes for each sample were excised and the proteins were reduced, alkylated, and in-gel digested with trypsin overnight at 37° C. Peptides were extracted, desalted with C18 spin columns (Pierce) and dried via vacuum centrifugation. Peptide samples were stored at −80° C. until further analysis. The peptide samples were analyzed by liquid chromatography coupled to tandem mass spectrometry (LC-MS/MS) in 3 separated experiments using a Thermo Easy nLC 1000 coupled to a QExactive HF or a Waters nanoAcquity coupled to a Thermo LTQ-Orbitrap Velos. Samples were injected onto a PepMap C18 column (75 μm id×25 cm, 2 μm particle size) (Thermo Scientific) and separated over a 90 or 120 min gradient where mobile phase A was 0.1% formic acid in water and mobile phase B consisted of 0.1% formic acid in ACN. The LTQ-Orbitrap Velos was operated in data-dependent mode where the 10 most abundant precursors were selected for CID fragmentation (35% CE). The QExactive HF was operated in data-dependent mode where the 15 most intense precursors were selected for subsequent HCD fragmentation (27 NCE).

The target of experiment [2] is T2, CD4 co-receptor (human, UniProt P01730 26-458).
T2 construct: Endogenous protein from T cell lysate
Kind of experiment: co-IP with anti-CAR19 Ab, LC-MS/MS.

The target of experiment [3] is B3. Kind of experiment: co-IP with anti-CAR19 Ab, LC-MS/MS; 'Values not identified are denoted by -'. The method, then:
as §1
(§2) For mass spectrometry (MS) assays, immunoprecipitated samples (3 biological replicates) were subjected to SDS-PAGE and stained with Coomassie blue dye. Lanes for each sample were excised and the proteins were reduced, alkylated, and in-gel digested with trypsin overnight at 37° C. Peptides were extracted, desalted with C18 spin columns (Pierce) and dried via vacuum centrifugation. Peptide samples were stored at −80° C. until further analysis. The peptide samples were analyzed by liquid chromatography coupled to tandem mass spectrometry (LC-MS/MS) in 3 separated experiments using a Thermo Easy nLC 1000 coupled to a QExactive HF or a Waters nanoAcquity coupled to a Thermo LTQ-Orbitrap Velos. […]

Experiment [4] concerns the target B6. The experiment is described as above. The method, then: as §1, §2

T1 sequence (P20963 other isoform, or with tags, fused parts or gaps): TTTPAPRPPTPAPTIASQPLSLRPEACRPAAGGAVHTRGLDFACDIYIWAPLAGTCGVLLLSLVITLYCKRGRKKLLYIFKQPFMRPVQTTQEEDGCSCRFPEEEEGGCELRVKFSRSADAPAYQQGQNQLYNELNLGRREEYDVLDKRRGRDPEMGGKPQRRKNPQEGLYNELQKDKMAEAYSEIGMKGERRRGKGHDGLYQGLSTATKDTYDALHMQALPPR

On to B1, for which, in experiment [1], the Area came to 3.78e+07, the Coverage is 4% and the “Peptides (number identified)” value was determined as 2.

Consider B2, for which, in experiment [1], the Area came to 7.34e+08, the Coverage was determined as 32% and the “Peptides (number identified)” value was found to be 6.

Turning to B3, in experiment [1], the Area turned out to be 5.52e+07, the Coverage turned out to be 14% and the “Peptides (number identified)” value worked out at 6.

As for B4, in experiment [1], the Area was determined as 5.1e+06, the Coverage came to 2% and the “Peptides (number identified)” value turned out to be 2.

As for B5, the binding result in experiment [2], in experiment [3] and in experiment [4] was “no binding” in each case.

Take B6: in experiment [1], the Area was found to be 2.31e+08, the Coverage stood at 15% and the “Peptides (number identified)” value is 4.

These data come from patent publication US20240156864A1 (UNIVERSITY OF NORTH CAROLINA AT CHAPEL HILL, published 2024).
